This note sets out measurements from publication PMC3326194 (Nature, 2012).

What is called stoichiometry N is a count of units in the complex or per binding partner.

The chains are these.
B2: CFeSP small subunit from Moorella thermoacetica (natural protein, UniProt Q07341 1-323, looked up)
chain: MAVQILRDRSRAAVQKVVLGATKDQGGTRSHTIVVGGDAALPFHHFEGEIVNRPVIGMEVQDIVPDWPDVLKDPFTDVINEPGRWAQKCVAEYGADLIYLKLDGADPEGANHSVDQCVATVKEVLQAVGVPLVVVGCGDVEKDHEVLEAVAEAAAGENLLLGNAEQENYKSLTAACMVHKHNIIARSPLDINICKQLNILINEMNLPLDHIVIDPSIGGLGYGIEYSFSIMERIRLGALQGDKMLSMPVICTVGYEAWRAKEASAPVSEYPGWGKETERGILWEAVTATALLQAGAHILLMRHPEAVARVKENIDQLMVSNAY

Holding throughout (assay): crystal structure
The target in data set [1] is T1, corrinoid iron-sulfur protein (CFeSP) from Moorella thermoacetica (Moorella thermoacetica, UniProt Q07340 1-446; Q07341 1-323).
T1 sequence (looked up) 1: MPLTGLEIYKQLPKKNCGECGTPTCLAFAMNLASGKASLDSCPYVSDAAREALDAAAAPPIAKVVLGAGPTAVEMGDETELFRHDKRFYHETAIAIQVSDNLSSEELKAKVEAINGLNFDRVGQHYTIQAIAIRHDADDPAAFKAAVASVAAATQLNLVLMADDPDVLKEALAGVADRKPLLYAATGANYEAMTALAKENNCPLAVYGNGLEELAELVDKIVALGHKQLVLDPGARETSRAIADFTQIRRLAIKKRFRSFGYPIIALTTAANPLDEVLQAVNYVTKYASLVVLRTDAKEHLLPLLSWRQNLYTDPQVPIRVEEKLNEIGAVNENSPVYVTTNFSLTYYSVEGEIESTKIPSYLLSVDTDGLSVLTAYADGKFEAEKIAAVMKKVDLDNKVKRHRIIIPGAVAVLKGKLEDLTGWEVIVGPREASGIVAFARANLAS
T1 sequence (looked up) 2: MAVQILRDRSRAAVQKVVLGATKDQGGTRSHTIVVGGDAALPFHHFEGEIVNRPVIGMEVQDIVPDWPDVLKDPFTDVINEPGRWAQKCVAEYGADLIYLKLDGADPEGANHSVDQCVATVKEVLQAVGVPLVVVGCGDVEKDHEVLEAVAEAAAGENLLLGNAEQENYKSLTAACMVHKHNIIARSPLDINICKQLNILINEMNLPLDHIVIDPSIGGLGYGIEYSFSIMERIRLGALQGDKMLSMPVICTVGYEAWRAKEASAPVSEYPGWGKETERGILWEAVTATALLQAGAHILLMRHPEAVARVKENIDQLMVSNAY

The target in data set [2] is B2.
The data set “crystal structure” deals with the molecule itself.
The target of data set [3] is T2, CFeSP large subunit from Moorella thermoacetica (Moorella thermoacetica, UniProt Q07340 1-446).
T2 sequence (looked up): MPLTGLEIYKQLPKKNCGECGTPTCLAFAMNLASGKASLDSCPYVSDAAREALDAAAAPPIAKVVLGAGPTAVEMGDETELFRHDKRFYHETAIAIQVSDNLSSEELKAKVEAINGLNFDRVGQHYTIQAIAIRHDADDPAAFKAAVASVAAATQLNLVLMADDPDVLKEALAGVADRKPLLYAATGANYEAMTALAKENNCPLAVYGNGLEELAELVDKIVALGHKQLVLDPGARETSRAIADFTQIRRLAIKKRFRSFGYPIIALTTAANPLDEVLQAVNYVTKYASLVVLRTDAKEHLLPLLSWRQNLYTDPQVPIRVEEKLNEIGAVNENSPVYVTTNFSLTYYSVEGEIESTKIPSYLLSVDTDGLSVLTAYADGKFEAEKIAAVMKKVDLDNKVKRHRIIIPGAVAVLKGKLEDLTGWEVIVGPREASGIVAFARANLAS

B1: methyltransferase (MeTr) from Moorella thermoacetica (enzyme, UniProt Q46389 1-262, looked up)
chain: MLIIGERINGMFGDIKRAIQERDPAPVQEWARRQEEGGARALDLNVGPAVQDKVSAMEWLVEVTQEVSNLTLCLDSTNIKAIEAGLKKCKNRAMINSTNAEREKVEKLFPLAVEHGAALIGLTMNKTGIPKDSDTRLAFAMELVAAADEFGLPMEDLYIDPLILPANVAQDHAPEVLKTLQQIKMLADPAPKTVLGLSNVSQNCQNRPLINRTFLAMAMACGLDAAIADACDEALIETAATAEILLNQTVYCDSFVKMFKTR
Turning to B1, the binding result in data set [1] and in data set [2] was “binds” throughout. Moreover, the “stoichiometry N” value in the data set “crystal structure” came out at 2.
In the case of B2, the binding result in data set [3] is recorded as “binds”.
